Data taken from paper PMC7235859, “Structural and Functional Peculiarities of α-Crystallin” (Biology, 2020).

Biological target: the molecule itself
Assay: negative-stain electron microscopy; 0.2 mg/mL, incubated 30 min at 37 °C in 20 mM Tris-HCl pH 7.5, 100 mM NaCl, 1 mM EDTA; 1% uranyl acetate; preparations from cortex, from nucleus and from Sigma; 12–14 nm particles used for 3D reconstruction

B1: native α-crystallin from bovine eye lens (complex)
chain 1: MDIAIQHPWFKRTLGPFYPSRLFDQFFGEGLFEYDLLPFLSSTISPYYRQSLFRTVLDSGISEVRSDRDKFVIFLDVKHFSPEDLTVKVQEDFVEIHGKHNERQDDHGYISREFHRRYRLPSNVDQSALSCSLSADGMLTFSGPKIPSGVDAGHSERAIPVSREEKPSSAPSS
chain 2: MDIAIHHPWIRRPFFPFHSPSRLFDQFFGEHLLESDLFPASTSLSPFYLRPPSFLRAPSWIDTGLSEMRLEKDRFSVNLDVKHFSPEELKVKVLGDVIEVHGKHEERQDEHGFISREFHRKYRIPADVDPLAITSSLSSDGVLTVNGPRKQASGPERTIPITREEKPAVTAAPKK
notes: αA-crystallin (HSPB4), bovine, isolated from eye lens as part of native α-crystallin; αB-crystallin (HSPB5), bovine, isolated from eye lens as part of native α-crystallin; Hetero-oligomeric mixture of αA- and αB-crystallin that was not separated; The number of subunits and the αA:αB ratio were not measured here (3:1 and about 42 monomers are cited); also called natural α-crystallin; authentic …
**Q.** Does B1 bind?
**A.** binds
